The target in this series is T1, RAD52 (hRAD52) (human, UniProt P43351 1-418).
T1 sequence: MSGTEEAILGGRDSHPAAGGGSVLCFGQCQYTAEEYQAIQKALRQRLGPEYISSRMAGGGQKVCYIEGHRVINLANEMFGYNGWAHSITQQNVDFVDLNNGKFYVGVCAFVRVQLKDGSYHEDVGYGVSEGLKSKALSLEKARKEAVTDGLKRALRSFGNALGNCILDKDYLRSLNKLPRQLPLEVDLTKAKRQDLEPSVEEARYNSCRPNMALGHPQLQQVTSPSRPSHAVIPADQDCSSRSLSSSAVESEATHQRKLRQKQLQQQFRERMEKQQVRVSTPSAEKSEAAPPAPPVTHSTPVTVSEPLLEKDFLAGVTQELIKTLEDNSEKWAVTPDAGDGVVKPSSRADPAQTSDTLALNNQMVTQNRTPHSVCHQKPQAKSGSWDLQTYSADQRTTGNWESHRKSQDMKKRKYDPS
Put plainly: EMSA; higher efficiency than unmodified N1; 1 mM Mg2+; source data at top RAD52 level (360, unit not shown): 97.3 and 99.2; EMSA: 25 mM Tris-HCl pH 7.5, 1 mM MgCl2, 1 mM DTT, 50 ug/mL BSA, 50 or 300 mM NaCl and/or 0.5% NP-40, 15 min 37 C, 6% PAGE-TBE at 4 C; pull-down: Pierce magnetic RNA-protein pull-down kit. The settings on record: protein: recombinant; tags: C-terminal 6xHis (pET28b); label: 5' maleimide-IR800 on oligo 1 (DNA); blunt. On the technique in general: Mobility shift assays separate free from complexed probe on a gel.

B1: 50-bp m5C DNA:RNA hybrid (oligo 1/oligo 3) (DNA:RNA)
DNA: ATCATCACCATAACGTCGATGTATCAACTTCGATTAGTCACACCAATTAA
RNA: UUAAUUGGUGUGACUAAUCGAAGUUGAUACAUCGACGUUAUGGUGAUGAU
modifications: m5C at every C of the RNA strand (positions 14, 19, 30, 33, 36; five m5C)
Consider B1, for which the binding result is “binds”.

These data come from publication PMC7275041, “m5C modification of mRNA serves a DNA damage code to promote homologous recombination”.
